# Experimental data reported in paper PMC9482650, “Quantitative fragmentomics allow affinity mapping of interactomes” (Nature Communications, 2022).
# T1: DVL1, O14640
# T1 sequence (O14640 246-333, limits assumed, looked up): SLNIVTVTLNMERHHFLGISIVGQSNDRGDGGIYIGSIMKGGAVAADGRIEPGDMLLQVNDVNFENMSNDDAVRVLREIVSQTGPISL
# T2: NHERF3_2, Q5T2W1
# T2 sequence (Q5T2W1 129-225, limits assumed, looked up): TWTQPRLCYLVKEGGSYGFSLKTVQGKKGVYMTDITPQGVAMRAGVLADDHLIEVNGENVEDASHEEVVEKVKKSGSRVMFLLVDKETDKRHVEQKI
# T3: PDZD2_1, O15018
# T3 sequence (O15018 80-192, limits assumed, looked up): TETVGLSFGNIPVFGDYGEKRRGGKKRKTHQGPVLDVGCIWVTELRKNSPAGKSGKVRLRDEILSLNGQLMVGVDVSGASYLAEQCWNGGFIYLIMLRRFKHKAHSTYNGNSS
# T4: PDZD4, Q76G19
# T4 sequence (Q76G19 125-224, limits assumed, looked up): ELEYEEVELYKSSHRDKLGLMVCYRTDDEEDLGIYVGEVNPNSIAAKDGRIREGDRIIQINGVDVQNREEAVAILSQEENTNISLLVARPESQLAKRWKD
# T5: PDZRN3_2, Q9UPQ7
# T5 sequence (Q9UPQ7 414-513, limits assumed, looked up): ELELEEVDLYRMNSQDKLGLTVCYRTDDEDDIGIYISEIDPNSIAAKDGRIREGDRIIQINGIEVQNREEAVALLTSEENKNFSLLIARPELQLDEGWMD
# T6: APBA3_2, O96018
# T6 sequence (O96018 480-570, limits assumed, looked up): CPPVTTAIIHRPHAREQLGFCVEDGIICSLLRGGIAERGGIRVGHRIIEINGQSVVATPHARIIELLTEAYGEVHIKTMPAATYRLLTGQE
# T7: MPDZ_2, O75970
# T7 sequence (O75970 252-347, limits assumed, looked up): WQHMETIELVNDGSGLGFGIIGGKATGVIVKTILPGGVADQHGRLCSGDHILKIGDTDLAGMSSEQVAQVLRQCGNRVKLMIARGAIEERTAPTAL
# T8: CNKSR1, Q969H4
# T8 sequence (Q969H4 191-295, limits assumed, looked up): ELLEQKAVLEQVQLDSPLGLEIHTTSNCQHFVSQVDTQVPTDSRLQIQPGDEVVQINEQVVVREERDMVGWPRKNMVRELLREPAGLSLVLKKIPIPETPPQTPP
# T9: PARD6G, Q9BYG4
# T9 sequence (Q9BYG4 153-261, limits assumed, looked up): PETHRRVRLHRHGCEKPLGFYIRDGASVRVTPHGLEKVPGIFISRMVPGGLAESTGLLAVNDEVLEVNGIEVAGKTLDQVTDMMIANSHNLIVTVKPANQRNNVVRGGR
# T10: NHERF1_1, O14745
# T10 sequence (O14745 9-104, limits assumed, looked up): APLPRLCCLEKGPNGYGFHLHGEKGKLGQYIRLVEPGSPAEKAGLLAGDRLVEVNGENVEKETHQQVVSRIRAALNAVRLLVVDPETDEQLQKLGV
# T11: PTPN13_4, Q12923
# T11 sequence (Q12923 1783-1878, limits assumed, looked up): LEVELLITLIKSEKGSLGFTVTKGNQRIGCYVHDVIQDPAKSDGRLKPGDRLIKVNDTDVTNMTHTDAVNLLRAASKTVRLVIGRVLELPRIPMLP
# T12: SHANK3, Q9BYB0
# T12 sequence (Q9BYB0 641-750, limits assumed, looked up): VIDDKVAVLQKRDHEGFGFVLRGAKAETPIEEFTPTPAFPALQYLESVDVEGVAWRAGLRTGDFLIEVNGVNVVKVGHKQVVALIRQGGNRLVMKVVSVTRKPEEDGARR
# T13: PDZD7_1, Q9H5P4
# T13 sequence (Q9H5P4 81-178, limits assumed, looked up): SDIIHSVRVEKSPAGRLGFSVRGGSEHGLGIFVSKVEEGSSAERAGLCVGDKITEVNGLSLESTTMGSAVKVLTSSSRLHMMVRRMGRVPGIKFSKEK
# T14: MAGI2_1, Q86UL8
# T14 sequence (Q86UL8 12-111, limits assumed, looked up): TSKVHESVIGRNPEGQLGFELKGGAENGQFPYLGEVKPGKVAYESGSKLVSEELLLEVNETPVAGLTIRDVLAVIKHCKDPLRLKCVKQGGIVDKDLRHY
# T15: PDZD8, Q8NEN9
# T15 sequence (Q8NEN9 361-459, limits assumed, looked up): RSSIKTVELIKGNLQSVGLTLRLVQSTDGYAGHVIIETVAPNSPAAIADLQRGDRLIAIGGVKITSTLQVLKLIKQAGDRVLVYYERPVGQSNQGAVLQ
# T16: PDZD11, Q5EBL8
# T16 sequence (Q5EBL8 42-139, limits assumed, looked up): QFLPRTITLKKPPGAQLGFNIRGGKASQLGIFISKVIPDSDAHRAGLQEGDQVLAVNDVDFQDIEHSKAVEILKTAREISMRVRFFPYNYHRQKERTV
# Tests used:
# Experiment in all cases: holdup assay
# Design in all cases: key: below the threshold = too weak to quantify, mostly under pKd 3.1 to 4
# Conditions in all cases: plain residues with an end cap or a label only (N-terminal biotin on a linker: ttds)
# DVL1, O14640 = molecular target: T1, DVL1, O14640
# NHERF3_2, Q5T2W1 = molecular target: T2, NHERF3_2, Q5T2W1
# PDZD2_1, O15018 = molecular target: T3, PDZD2_1, O15018
# PDZD4, Q76G19 = molecular target: T4, PDZD4, Q76G19
# PDZRN3_2, Q9UPQ7 = molecular target: T5, PDZRN3_2, Q9UPQ7
# APBA3_2, O96018 = molecular target: T6, APBA3_2, O96018
# MPDZ_2, O75970 = molecular target: T7, MPDZ_2, O75970
# CNKSR1, Q969H4 = molecular target: T8, CNKSR1, Q969H4
# TJP1_1, Q07157 = molecular target: TJP1_1, Q07157
# PARD6G, Q9BYG4 = molecular target: T9, PARD6G, Q9BYG4
# NHERF1_1, O14745 = molecular target: T10, NHERF1_1, O14745
# Q96FS4 = molecular target: Q96FS4
# PTPN13_4, Q12923 = molecular target: T11, PTPN13_4, Q12923
# SHANK3, Q9BYB0 = molecular target: T12, SHANK3, Q9BYB0
# PDZD7_1, Q9H5P4 = molecular target: T13, PDZD7_1, Q9H5P4
# MAGI2_1, Q86UL8 = molecular target: T14, MAGI2_1, Q86UL8
# Q9NPB6 = molecular target: Q9NPB6
# PDZD8, Q8NEN9 = molecular target: T15, PDZD8, Q8NEN9
# Q9ULJ8 = molecular target: Q9ULJ8
# AHNAK2, Q8IVF2 = molecular target: AHNAK2, Q8IVF2
# PDZD11, Q5EBL8 = molecular target: T16, PDZD11, Q5EBL8
# Sequence of TJP1_1, Q07157 (Q07157 18-120): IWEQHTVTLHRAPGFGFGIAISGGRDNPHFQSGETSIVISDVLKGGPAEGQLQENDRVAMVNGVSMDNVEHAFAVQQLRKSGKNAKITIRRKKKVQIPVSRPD
# Sequence of AHNAK2, Q8IVF2 (Q8IVF2 108-193): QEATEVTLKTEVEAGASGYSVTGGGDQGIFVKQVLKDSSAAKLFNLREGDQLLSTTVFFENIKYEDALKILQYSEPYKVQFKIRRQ
Binder,"pKd (DVL1, O14640)","pKd (NHERF3_2, Q5T2W1)","pKd (PDZD2_1, O15018)","pKd (PDZD4, Q76G19)","pKd (PDZRN3_2, Q9UPQ7)","pKd (APBA3_2, O96018)","pKd (MPDZ_2, O75970)","pKd (CNKSR1, Q969H4)","pKd (TJP1_1, Q07157)","pKd (PARD6G, Q9BYG4)","pKd (NHERF1_1, O14745)",pKd (Q96FS4),"pKd (PTPN13_4, Q12923)","pKd (SHANK3, Q9BYB0)","pKd (PDZD7_1, Q9H5P4)","pKd (MAGI2_1, Q86UL8)",pKd (Q9NPB6),"pKd (PDZD8, Q8NEN9)",pKd (Q9ULJ8),"pKd (AHNAK2, Q8IVF2)",also measured
"RLPKIKETTV [FRMPD4, Q14CM0]",4.63,below the threshold,below the threshold,below the threshold,below the threshold,4.47,below the threshold,below the threshold,below the threshold,below the threshold,below the threshold,below the threshold,below the threshold,below the threshold,below the threshold,below the threshold,below the threshold,below the threshold,below the threshold,below the threshold,"pKd (PDZD11, Q5EBL8): below the threshold"
"RPLPRKVSQL [DOCK4, Q8N1I0]",below the threshold,below the threshold,below the threshold,below the threshold,below the threshold,below the threshold,below the threshold,below the threshold,below the threshold,below the threshold,below the threshold,below the threshold,below the threshold,below the threshold,4.33,below the threshold,below the threshold,below the threshold,below the threshold,below the threshold,"pKd (PDZD11, Q5EBL8): below the threshold"
